Assay results as given in patent US20050069869A1 (UNIVERSITY OF MASSACHUSETTS, published 2005).

What was measured:
[1] = target: S(1255), full length S protein with transmembrane and cytoplasmic domains, on transfected HEK 293 cells (SARS-CoV, UniProt P59594 15-1190); assay: FACS on HEK 293 cells transfected with S(1255); given as ED50
[2] = target: SARS-CoV S protein of the virus (Urbani strain; virions and infected Vero cell extracts) (SARS-CoV, UniProt P59594 15-1190); assay: cell-based or functional assay
[3] = target: S(590), N-terminal 590 amino acids of the SARS-CoV S protein (SARS-CoV, UniProt P59594 15-590); assay: FACS; inhibition of myc-tagged S(590) binding to Vero E6 cells
[4] = target: S(470), amino acids 1-470 of the SARS-CoV S protein (SARS-CoV, UniProt P59594 15-470); assay: immunoprecipitation from culture supernatant, Western blot with anti-His6
[5] = target: T1, S(130), amino acids 1-130 of the SARS-CoV S protein (SARS-CoV, UniProt P59594 15-130); assay: as above
T1 sequence: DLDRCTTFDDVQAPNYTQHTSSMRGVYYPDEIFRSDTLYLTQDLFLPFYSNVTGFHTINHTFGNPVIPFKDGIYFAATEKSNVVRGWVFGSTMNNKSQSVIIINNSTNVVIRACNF

[6] = target: T2, S(269), amino acids 1-269 of the SARS-CoV S protein (SARS-CoV, UniProt P59594 15-269); assay: as above
T2 sequence: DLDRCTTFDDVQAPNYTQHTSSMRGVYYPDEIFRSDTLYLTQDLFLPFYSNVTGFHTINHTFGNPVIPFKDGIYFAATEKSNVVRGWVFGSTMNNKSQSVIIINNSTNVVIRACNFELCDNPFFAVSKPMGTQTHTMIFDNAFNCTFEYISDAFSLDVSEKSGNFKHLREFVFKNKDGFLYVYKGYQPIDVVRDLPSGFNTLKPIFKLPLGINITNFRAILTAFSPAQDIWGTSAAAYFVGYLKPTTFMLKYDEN

[7] = target: T3, S(170), amino acids 1-170 of the SARS-CoV S protein (SARS-CoV, UniProt P59594 15-170); assay: as above
T3 sequence: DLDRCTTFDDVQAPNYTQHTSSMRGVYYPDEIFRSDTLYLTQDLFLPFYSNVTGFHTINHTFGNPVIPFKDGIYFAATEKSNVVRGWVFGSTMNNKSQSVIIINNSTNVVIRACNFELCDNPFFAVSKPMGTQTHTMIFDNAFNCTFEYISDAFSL

[8] = target: T4, S(150), amino acids 1-150 of the SARS-CoV S protein (SARS-CoV, UniProt P59594 15-150); assay: as above
T4 sequence: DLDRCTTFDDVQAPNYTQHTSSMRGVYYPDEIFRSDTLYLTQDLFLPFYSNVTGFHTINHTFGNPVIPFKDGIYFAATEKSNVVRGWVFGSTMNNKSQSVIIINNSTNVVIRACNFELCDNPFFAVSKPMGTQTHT

[9] = target: S(490), amino acids 1-490 of the SARS-CoV S protein (SARS-CoV, UniProt P59594 15-490); assay: as above

B1: human monoclonal antibody 201.2 (antibody, V domains shown)
VH: EVQLVQSGGGLVHPGGSLRLSCAGSGFTFSSYDMHWVRQAPGKGLEWVSVVGTGDGTYYADSVKGRFTISRDNAKNSLYLQMNSLRAEDMAVYYCARDQWWGSDYWGQGTLVTVSS
VL: EIVLTQSPATLSLSPGERATLSCRASQSVSSYLAWYQQKPGQAPRLLIYDASNRATGIPARFSGSGSGTDFTLTISSLEPEDFAVYYCQQRSNWPLTFGGGTKVEIK
notes: also called 508-201; 7-508-201
Q: How did the EC50 [1] turn out when B1 was run?
A: The EC50 was 6 nM.

Q: What about the “Viral Neut. in vitro (IC50, nM)” value [2] of the same binder?
A: Its value is 0.7 nM.

Q: What about the IC50 [3] of the same binder?
A: The IC50 was 2 nM.

Q: Does B1 bind [4]?
A: Result: no binding

Q: Does B1 bind [5]?
A: Result: no binding

Q: Does B1 bind [6]?
A: Result: no binding

Q: Does B1 bind [7]?
A: Result: no binding

Q: Does B1 bind [8]?
A: Result: no binding

Q: Does B1 bind [9]?
A: Result: no binding
